Measurements taken from paper PMC11904528, “Discovery and preclinical development of a SdAb-based CAR-T technology for targeting CD33 in AML” (Molecular Therapy Oncology, 2025).
Like-named read-outs stand apart in the source and are kept apart here.

How the values were obtained:
[1] = biological target: T1, CD33 recombinant ectodomain (His-tagged) (Homo sapiens, UniProt P20138); assay: SPR; Biacore X100, NTA chip; His-tagged CD33 ectodomain captured on nickel, cross-linked with EDC/NHS, nickel stripped with EDTA (388 RU); SdAbs as analytes at 1,000-12.3 nM; single-cycle kinetics; HBS-EP+; 10 uL/min, contact 300 s, dissociation 600 s; 1:1 binding model
[2] = biological target: T1, CD33 recombinant ectodomain (His-tagged); assay: ELISA; CD33-coated plates; SdAbs titrated and detected with anti-HA HRP; relative affinities (EC50)
[3] = biological target: T1, CD33 recombinant ectodomain (His-tagged)
[4] = biological target: CD33 recombinant ectodomain (His-tagged) (human) (UniProt P20138); assay: ELISA; CD33-coated plates; SdAbs titrated and detected with anti-HA HRP; relative affinities (EC50)
[5] = biological target: CD33 recombinant ectodomain (His-tagged) (human) (UniProt P20138); assay: SPR; Biacore X100, NTA chip; His-tagged CD33 ectodomain captured on nickel, cross-linked with EDC/NHS, nickel stripped with EDTA (388 RU); SdAbs as analytes at 1,000-12.3 nM; single-cycle kinetics; HBS-EP+; 10 uL/min, contact 300 s, dissociation 600 s; 1:1 binding model
[6] = biological target: T2, Biotinylated CD33 (bio-CD33) (Homo sapiens, UniProt P20138, biotin); assay: BLI; Octet N1, streptavidin SAX2 sensors; bio-CD33 immobilised at 100 nM; in-tandem epitope binning: first antibody 400 nM, then a mixture of 400 nM first and 200 nM second antibody; PBS; conditions: both partners purified
T2 construct: CD33 (Siglec-3), biotinylated
T2 sequence (P20138 whole entry, looked up, tested part not stated): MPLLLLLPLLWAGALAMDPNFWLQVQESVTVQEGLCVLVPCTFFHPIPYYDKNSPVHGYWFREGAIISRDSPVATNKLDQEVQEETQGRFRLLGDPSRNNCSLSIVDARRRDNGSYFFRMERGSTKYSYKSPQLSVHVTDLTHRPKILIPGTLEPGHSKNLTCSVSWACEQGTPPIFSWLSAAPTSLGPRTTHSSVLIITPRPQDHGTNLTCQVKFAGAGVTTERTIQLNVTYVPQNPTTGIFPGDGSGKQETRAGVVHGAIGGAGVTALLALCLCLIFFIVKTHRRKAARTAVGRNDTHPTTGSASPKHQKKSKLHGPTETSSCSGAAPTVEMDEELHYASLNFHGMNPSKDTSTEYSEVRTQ

T1 sequence (P20138 18-259): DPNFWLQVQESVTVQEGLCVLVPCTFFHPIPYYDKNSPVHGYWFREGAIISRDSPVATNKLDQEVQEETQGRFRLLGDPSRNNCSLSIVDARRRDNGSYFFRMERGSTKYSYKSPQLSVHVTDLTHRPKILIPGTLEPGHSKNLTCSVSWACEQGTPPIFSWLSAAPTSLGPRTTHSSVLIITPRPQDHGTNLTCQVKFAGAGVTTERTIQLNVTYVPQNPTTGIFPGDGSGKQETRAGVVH
Chain of CD33 recombinant ectodomain (His-tagged) (human) (P20138 18-259): as above

| Binder | Kd ([1]; both partners purified) [nM] | koff ([1]; both partners purified) [s⁻¹] | kon ([1]; both partners purified) [M⁻¹ s⁻¹] | EC50 ([2]; both partners purified) [nM] | further results |
| --- | --- | --- | --- | --- | --- |
| Nb16 (VHH) VHH: EVQLVESGGGLVQTGGSLRLSCAASGRTFSPLAMGWFRQAPGREREFVAGITWSGGSLYYGDFVKGRFTISRDAAKNTLYLQMNSLKPEDTAVYYCAARDYSGDSNFQVTRPSEWDHWGQGTQVTVSS | – | – | – | – | Kd [1]: 4.18 nM; koff [1]: 4.64e-05 s⁻¹; kon [1]: 11100 M⁻¹ s⁻¹; EC50 [2]: 1.91 nM; Kd [3]: 4.18 nM |
| Nb17 (VHH, llama VHH; From a phage display library of a llama immunised with CD33; also called SdAb Nb17; source: E. coli expression strains (pETMod, OmpA periplasmic signal), purified (IMAC, IEC)) VHH: QVQLQESGGGLVQTGGSLRLSCAVSGSTFSDYVIGWFRQAPGKERDFVAAITWSGGSTYYADSVKGRFIISRDNAKNTVYLQMNSLKPEGTAVYYCAALQLKGGSYYYPAPEEYSYWGQGTQVTVSS | 4.99 | 8.24e-05 | 16500 | 4.05 | – |
| Nb3 (VHH, llama VHH; From a phage display library of a llama immunised with CD33; also called SdAb Nb3; source: E. coli expression strains (pETMod, OmpA periplasmic signal), purified (IMAC, IEC)) VHH: EVQLVESGGGLVQAGGSLSLSCAASGRTFSSYVMGWFRQAPGKEREFVAALTWSGGSTYYGDSAKGRFTISRDNAKNTVYLQMNSLKPEDTADYYCAAAALEGGAYHIATMSTYNYWGQGTQVTVSS | – | – | – | – | EC50 [4]: 16.7 nM; Kd [5]: 115 nM; koff [5]: 0.0017 s⁻¹; kon [5]: 14700 M⁻¹ s⁻¹; binding result [6]: binds |
| Nb1 (VHH, llama VHH; From a phage display library of a llama immunised with CD33; also called SdAb Nb1; source: E. coli expression strains (pETMod, OmpA periplasmic signal), purified (IMAC, IEC)) VHH: QVQLQESGGGLVQVGGSLRLSCAASGRAFSTDIMAWFRQAPGKEREFVAAIKWNADNTYDTNSVKGRFTISRDNAKNTNYLEVNSLKPEDTAVYYCASGFSSRPYSDSDSRKYIYWGQGTQVTVSS | 29.9 | 0.0011 | 36800 | 6.4 | – |
| Nb8 (VHH, llama VHH; From a phage display library of a llama immunised with CD33; also called SdAb Nb8; source: E. coli expression strains (pETMod, OmpA periplasmic signal), purified (IMAC, IEC)) VHH: EVQLVESGGGLVQDGGSLRLSCAASGRTFSSYVMGWFRQAPGKEREFVAAITWSGGSTYYADSVKGRFTISRDNAKNTVYLQMNSLKPEDTAVYYCAAFELGGGSYYYPDPNEYDYWGQGTQVTVSS | 14.4 | 0.000356 | 24800 | 3.99 | – |
